In paper PMC8187593 (2021) one finds Kd data, which are given here for 2 molecules.

The assay has as its target T1, cathepsin K mature active enzyme (Homo sapiens, UniProt P43235).
T1 chain: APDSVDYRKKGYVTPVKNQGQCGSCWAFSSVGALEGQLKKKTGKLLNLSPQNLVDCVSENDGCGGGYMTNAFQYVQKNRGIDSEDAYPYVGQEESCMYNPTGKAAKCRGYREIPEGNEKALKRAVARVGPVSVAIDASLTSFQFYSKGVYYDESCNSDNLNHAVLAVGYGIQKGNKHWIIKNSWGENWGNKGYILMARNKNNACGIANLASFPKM
Kind of assay: SPR. A general note: In SPR one partner is held on a chip, and binding of the other changes the refractive index at the surface.

B1: vitronectin (pVN) (protein)
chain: DQESCKGRCTDGFIAERKCQCDELCSYYQSCCTDYVAECKPQVTRGDVFLQPDDEYRAYDYHEETRHNTSVQEEQRIPVLLAKTEETPVLKPEEEAPPPGPQTDDLGVPEEELCSGKPFDAFTNLKNGSVFAFRGLYCYELDEKAVRPGYPKLIQDVWGIKGPIDAAFTRINCQGKTYLFKGSQYWRFDDGVLDPNYPREISEGFKGIPDDVDAALALPAHSYSGRERVYFFKGKQYWEYVFQQQPSREECEGSSPSDVFAHFALMQRDSWEDIFRLLFWSHSFGGAIEPRVISQDWLGLPEQVDAAMAGQIYISGSALKPSQPKMTKSARRSGKRYRSRRGRGRGRGHSRSQKSHRQSRSTWLPWFSSEETGPGGYNYDDYKMDWLVPATCEPIQSVYFFSGEEYYRVNLRTQRVDTVTPPYPRSIAQYWLGCPVPDQK
B1 yielded a Kd of 4.2 nM. That is a single-digit nanomolar value.

B2: vitronectin (hVN) (protein)
chain: DQESCKGRCTEGFNVDKKCQCDELCSYYQSCCTDYTAECKPQVTRGDVFTMPEDEYTVYDDGEEKNNATVHEQVGGPSLTSDLQAQSKGNPEQTPVLKPEEEAPAPEVGASKPEGIDSRPETLHPGRPQPPAEEELCSGKPFDAFTDLKNGSLFAFRGQYCYELDEKAVRPGYPKLIRDVWGIEGPIDAAFTRINCQGKTYLFKGSQYWRFEDGVLDPDYPRNISDGFDGIPDNVDAALALPAHSYSGRERVYFFKGKQYWEYQFQHQPSQEECEGSSLSAVFEHFAMMQRDSWEDIFELLFWGRTSAGTRQPQFISRDWHGVPGQVDAAMAGRIYISGMAPRPSLAKKQRFRHRNRKGYRSQRGHSRGRNQNSRRPSRATWLSLFSSEESNLGANNYDDYRMDWLVPATCEPIQSVFFFSGDKYYRVNLRTRRVDTVDPPYPRSIAQYWLGCPAPGHL
B2: the Kd was 1.99 nM.

By Kd is commonly meant the free concentration of one partner at which half of the binding sites on the other are occupied at equilibrium, for simple one-to-one binding.
